Data taken from the nanobody polyreactivity screen of Harvey et al. (2022).

Assay: yeast display, Sf9 membrane polyspecificity reagent, FACS + sequencing; frameworks hold sequencing errors
Method in brief: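 Galactose-induced (36–48 hours) yeast carrying a synthetic nanobody display library were exposed to 10% biotinylated, detergent-solubilized Sf9 membrane reagent at 4 °C for 1 hour. FACS followed streptavidin microbead enrichment, using low and high (top ~1%) gates for expression (anti-HA) and reagent binding (streptavidin). Colony PCR, MiSeq 2 × 250 sequencing and CDR-length filtering followed. Labels for polyreactivity reflect the gate of origin.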

QVQLLESGGGLVQEGGSLRLSCAASGSIFEWYVMGWYRQAPGKERELVDTITSDCSSNYADSVKGRFTISRDNAKNTVYLQMNSLKPEDSAVYYCARDWRWDAWTRRGNDDGYWGQGTQVTVSS
polyreactivity (PSR sort gate): low polyreactivity

QVQLVESGGGLVQAGCSLRLSCAASGSIFTSYAMGWYRQAPGKERELVAAINRSSGTTYYAHSVKGRFTISRDTAKNTVYLQMNSLKREDTAVYYCAKEYGIYTDTPYYYWGQGTQVTVSS
polyreactivity (PSR sort gate): low polyreactivity

QVQLVESGGGLVQAGGSLRLSCAASGFTFAGYAMGWYRQAPGKERELVAAISISGGRTYYADSVKGRFTSSRDYAKNTVYLQMNSLKPEDTAVYYCNAASREPSGYDYWGQGTQVTVSS
polyreactivity (PSR sort gate): high polyreactivity

QVQLVESGGGLVQAGGSLRLSCAASGFIFYPYAMGWYRQAPGKVRELVAVITSGGRTYYADSVKGRFTISRDNAKNTVYLQMNSLKAEDTAVYYCAARYGRIHWKANWPEYGYWGQGTQVTVSS
polyreactivity (PSR sort gate): low polyreactivity

QVQLVESGGGLVQAGGSLRLSCAPSGRTFSVNDMGWYRQAPGKERELVAAISFSGGSTYYADSVKGRFTISRDNAKNTVYLQMNSLKPEDTAVYYCAAEAYPSWFYVITGFGIYDYWGQGTQVTVSS
polyreactivity (PSR sort gate): high polyreactivity

QGQLVESGGGLVQAGGSLRLSCAPSGFIFKFYAMGWYRQAPGKESELVAAITSSGGSTNYADSVKGRFTISRDNAKNTVYLQMISLKPEDTAVSYCAAQFPGVYYYIYDYWGQGTQVTVSS
polyreactivity (PSR sort gate): high polyreactivity

QVQLVESGGGLVQAGRSLRLSCAASGITFGRNTMGWYRQAPGKERELVAAIDSGGNTYADSVKGRFTISRDNAKNTVYLQMNSLKPEDTAVYYCAVDGGEFSSYGYWGQGTQVTVSS
polyreactivity (PSR sort gate): low polyreactivity

QVQLVESGGGLVQAGGSLRLSCAASGRISQIYAMGWYRQAPWKERELVARITSTDSTYYADSVKGRFTISRDNAKNTVYLQMNSLKPEDTAVYYCAASWWSPYDYWGQGTQVTVSS
polyreactivity (PSR sort gate): low polyreactivity

PVQLVESGGVLVQAGGSLRLSCAASGITFWDKAMGWYRQPPGKERELVAAITSGNTDYADSVKGRFTISRDNAKNSVYLPMTSLIPEDTAVYYCGAELLVGGGVTVDYWGQGTQVTVSS
polyreactivity (PSR sort gate): low polyreactivity

QVQLVESGGGLVQAGGSLRLSCAASGSTFIQNAMGWYTQAPGKERELVAAITSGGGTNYADSVKGRFTISRDNAKNTVYLQMNSLKPEDTAVYYCAAEPFNYVEFWFGWEYQYDYWGQGTQVTVSS
polyreactivity (PSR sort gate): low polyreactivity

QVQLVESGAGLVQAGGSLRISCAASGRTFGLNDMAWYRPAPGKERELVAAITWSDDDTYYADSVKGRFTISRDNAKNTVYLQMNSLKPEDTAVYYCAKSRYDYTKTECGYWGQGTEVTVSS
polyreactivity (PSR sort gate): low polyreactivity

QVQLVESGGGLVQAGGSLRLSCAASGRIFKYNAMGWYRQAPGKERELVAAISSSGGSTYYADSVKGRCTISRDNAKNTVYLQMNSLKPEDTAVYYCAARYNSRVYRYDYWGQGTQVTVSS
polyreactivity (PSR sort gate): high polyreactivity

QVQLVESGGGLVQAGGSLRLSCAASGRIFYSNAMGWYRQAPGKERELVAAISSSGGSTYYADSVKGRFTISRDNAKNTVDLQMNSLKPEDTAVYYCNAVHARYRSQGDYWGQGTQVTVSS
polyreactivity (PSR sort gate): low polyreactivity

QVQLVESGGGLVQAGGSLRLSCAASGFTFQYYAMGWYRQAPGKERELVAAISWSGGRTYYADSVKGRFTISRDIAKNTVYLQLNSLKPEDNAVYYCAASYIVYPARYEDEGDYWGQGTQVTVSS
polyreactivity (PSR sort gate): high polyreactivity

QVQLVESGGGLVQAGGSLRLSCAASGRTFWGYAMGWYRQAPGKERELVAAISWSGTSTYYADSVKGRFTISRDNAKNTVYLQMNRLKPEDSAVYYCARAVNDWSRKYNYWGQGTLVTVSS
polyreactivity (PSR sort gate): high polyreactivity

QVQLVQSGGGLVQAGGSHRLSCAASGFIFPVYAMGWYRQPPGKERELFASMTTGGSTNYADSVKGRFTITRDNAKNSVYLQMNSLKPEDTAVYDCNQDTPASLANQYNYGGQGTQVTVSS
polyreactivity (PSR sort gate): low polyreactivity

QVQLVESGGGLVQAGGSLRLSCAASGSIFYHYVMGWYRQAPGKERELVAAISSSGRTYYADSVKGRFTISRDNAKNTVYLQMNSLKPEDTAVYYCAADVHFGVGMDYWGQGTQVTVSS
polyreactivity (PSR sort gate): low polyreactivity

QVQLVESGGGLVQAGGSLRLSCAASGIFPYNAMGWYRQAPGKERELVAAITWSDGSTYYADSVKGRFTISRDNAKNTVYLQMNSLKPEDTAVYYCNTYRNPAEDYWGQGTQVTVSS
polyreactivity (PSR sort gate): low polyreactivity

QVQLVESGGGLVQAGGSLRLSCAASGRTFEYYAMGWYRQAPGKERELVASISFGGGSTYADSVKGRFTISRDNAKNTVYLQMNSLKPEDTAVYYCAATGGWYKHWFDYWGQGTQVTVSS
polyreactivity (PSR sort gate): low polyreactivity

QVQLVESGGGLVQAGGSLRLSCDASGRTFRYNAMGWYRQAPGKERELVAAISTRGGSTYYADSVKGRFTISRDNAKNTVYLQMNSLKPEDTAVYYCAADGRYAYGYNHWGQGTQVTVSS
polyreactivity (PSR sort gate): low polyreactivity

QVQLVESGGGLVQAGGSLRLSCAASGGTFQGNAMGWYRQAPGKEREFVATITRGGGSTYYADSVKGRFTISRDNAKNTVYLQMNSLKPEDTAVYYCNAKPSYYQRYNYWGQGTQVTVSS
polyreactivity (PSR sort gate): high polyreactivity

QVQLVESGGGLVQAGGSLRLSCAASGLIFVGNAMGWYRQAPGKERELVAAISSRGGRTYYADSVKGRFTISRDNAKNTVYLQMNSLKPEDTAVYYCNAAKSQWGFEYWGQGTQVTVSS
polyreactivity (PSR sort gate): high polyreactivity

QVQLVESGGGLVHAGGSLRLSCAASGSTFSWYVMGWYRQAPGKERELVAAISYRGGRTYYADSVKGRFTISRDNAKNTVYLHMNSLKTEDTAVYYCAARGVVDAGRTNRPYDYWGQGTQVTVSS
polyreactivity (PSR sort gate): low polyreactivity

QVQLVESGGGLVQAGGSLRLSCAASGSTFNKYTMGWYRQAPGKERELVAAISSIGGSTYYADSVKGRFTISRDNAKNTVYLQMNSLKPEDTAVYYCAAPYPIGHDWGQGTQVTVSS
polyreactivity (PSR sort gate): low polyreactivity

QVQLVESGGGLVQAGGSLRLSCAASGRIFYGYAMGWYRQAPGKERELVAAIRWYVGNTYYADSVKGRFTISRDNAKNTVYLQMNSLKPEDTAVYYCNARTEYASSRYYYWGQGTQVTVSS
polyreactivity (PSR sort gate): high polyreactivity

QVQLVESGRGLVQAGGSLRLSCAASGRIIRWNAMGWYRQAPGKERELVAGISGSGGSTYYADSVKGRFTISRDNAKNTVYLQMNSLKPEDTAVYYCAADHYRSRYDYWGQGTQVTVSS
polyreactivity (PSR sort gate): low polyreactivity

QVQLVESGGGLVQAGGSLRLSCAASGSTSWYDMGWYRQPPGKERELVASISSGDSTNYADSVKGRFTISRDNAKNTVYLQMNSLKPDDTAVYYCAADFNVGFVWGDDSDYWGQGTQVTVSS
polyreactivity (PSR sort gate): low polyreactivity

QVQLVESGGGLVQAGGSLRLSCAASGGTFHSNAMGWYRQAPGKERELVASINWSGGSTYYADSVKGRFTISRDNAKNTDYLQMNSLKPEDTAVYYCAARESYPGYGYDHWGQGTQVTVSS
polyreactivity (PSR sort gate): low polyreactivity

QVQLVESGGGLVQAGGSLRLSCAASGYIFDRYAMGWYRQAPGKERELVAAITNGGRTYYADSVKGRFTISRDNAKNTVYLQMNSLKPEDTAVYYCAAVVYSRGYYWGQGTQVTVSS
polyreactivity (PSR sort gate): high polyreactivity

QVQLVESGGGLVQAGGSLRLSCAASGFTFGQYAMGWYRQAPVKERELVAAITGSGGRTYYADSVKGRITISRDTAKNTVYLQMNSLKPEDTGVYYCNARVPLRQYSNYYWGQGTQVTVSS
polyreactivity (PSR sort gate): high polyreactivity

QVQLVESGGGLVQAGGSLRLSCAASCVRNAMGWYRQAPGKERELVAAITSGGNTNYADSVKGRFTISRDNAKNTVYLQMNSLKPEDTAVYYCAKDLLYYTQQGTGVVDYDYWGQGTQVTVSS
polyreactivity (PSR sort gate): low polyreactivity

QVQLVESGGGLVQAGGSLRLSCAASGSTFYGYGMGWYRQAPGKERELVAAITGYGDTTYYADSVKGRFTISRDYAKNTVDLQMNSLKPEDTAVYYCNARWHAEYDYWGQGTQVTVSS
polyreactivity (PSR sort gate): low polyreactivity

QVQLVESGGGLVQAGGSLRLSCAAYGYTLYHNAMGWYRQAPGKERELVAAITSSGGRTYYADSVKGRFTISRDNAKNTVYLQMNRLKPDDTAVYYCNAVVWVYSISLSYTGTKYEYWGQGTQVTVSS
polyreactivity (PSR sort gate): high polyreactivity

QVQLVESGGGLVQAGGSLRLSCAASGRTFVPYAMGWYRQAPGKEREMVAAISQSGGRTYYTDSVKGRFTISRDNAKNTVYLLMNSLKPEDTAVYYCAARGPYRPPHGDAYYTYVYWGQGTQVTVSS
polyreactivity (PSR sort gate): high polyreactivity

QVQLVESGGGLVQAGGSLRLSCAASGFIFLQYVMGWYRQAPGKERELVAAITSGGSTYYADSVKGRFTISRDNAKNTVYLQMNSLKPEDTAVYFCATDVADNTFYALYGYDYWGQGTQVTVSS
polyreactivity (PSR sort gate): low polyreactivity

QVQLVESGGGLVQAGGSLRLSCAASGSTFVRYAMGWYRQAPGKERELVAAIRGGGGTYYADSVKGRFTISRDNAKNTVYLQMNSLKPVDTAVYYCAADTYYYYWFAGYTEYDYWGQGTQVTVSS
polyreactivity (PSR sort gate): low polyreactivity

QVQLVESAGGLVQAGGSLRLSCAASGRTFFRNAMGWYRQAPGKERELVAGITASGGNTYYADSVKGRFTISRDNAKNTVYLQMNSLKPEDTAVYFCNAVYSLARITRAGYGYWGQGPQVTVSS
polyreactivity (PSR sort gate): high polyreactivity

QVQLVESGGGLVQAGGSLRLSCAASGNTFVYYAMGWYRQAPGKERELVAGISRRSGSTYYADSVKGRFTISRDNAKNTVYLQMNSLKPEDTAVYYCAKGRTYLDADDYWGQGTQVTVSS
polyreactivity (PSR sort gate): low polyreactivity

QVQLVESGGGLVQAGGSLRLSCAASGSTFIQYAMGWSRQAPGNERELVASIRWIGGSTYYADSVKGRFTISRDNAKNTVYLQMNSLKAEDTAVYYCAAGYEYVENGVDWYEYDYWGQGTQVTVSS
polyreactivity (PSR sort gate): low polyreactivity

QVQLVESGGGLVQAGGSLRLSCAASGRTFSNYAMGWYRQAPGKERELVAAISSGGSTNYADSVKGRFTISRDNAKNTVYLLMNSLKPEDTAVYYCAARQRAYYGPGFDYWGQGTQVTVSS
polyreactivity (PSR sort gate): low polyreactivity

QVQLVESGGGLVQAGGTLRLSCAASGFIFDWNTKGWYRQAPGKERELVAAITESSGSTYYADSVKGRFTISRDNAKNTVYLQMNSLKPEDTAVYYCAAELDVYVSIGSRFHFDYWGQGTQVTVSS
polyreactivity (PSR sort gate): low polyreactivity

QVQLQESGGGLVQAGGSMRLSCAASGYNTIEVTRAGFSRRRAKNANLLPLLITVVLPIKRIAQNTISRDNAKNTVYLQMNSLKPEDTAVYNCAANTIGTDLYEYWGQGTQATVSS
polyreactivity (PSR sort gate): low polyreactivity

QVQLVESGGGLVQAGGSLRLSCAASGITFSYYAMGWYRQAPGKERELVATIRSSGGSTYYADSVKGRFTISRDNAKNTVYLQMNSLKPEDTAVYYCAVRLWFDYNYWGQGTQVTVSS
polyreactivity (PSR sort gate): low polyreactivity
